The values that follow come from article PMC13399123, “Interaction of HS1BP3 with cortactin modulates TKS5 localisation, cell secretion and cancer malignancy” (Molecular Oncology, 2026).

This assay has as its target T1, full-length MBP-HS1BP3 (UniProt Q53T59 1-392).
T1 construct: HS1BP3, full length; also called HS1BP3 FL; MBP HS1BP3 full-length WT; source: SoluBL21 E. coli, purified (amylose resin, eluted with 10 mM maltose)
T1 sequence (looked up): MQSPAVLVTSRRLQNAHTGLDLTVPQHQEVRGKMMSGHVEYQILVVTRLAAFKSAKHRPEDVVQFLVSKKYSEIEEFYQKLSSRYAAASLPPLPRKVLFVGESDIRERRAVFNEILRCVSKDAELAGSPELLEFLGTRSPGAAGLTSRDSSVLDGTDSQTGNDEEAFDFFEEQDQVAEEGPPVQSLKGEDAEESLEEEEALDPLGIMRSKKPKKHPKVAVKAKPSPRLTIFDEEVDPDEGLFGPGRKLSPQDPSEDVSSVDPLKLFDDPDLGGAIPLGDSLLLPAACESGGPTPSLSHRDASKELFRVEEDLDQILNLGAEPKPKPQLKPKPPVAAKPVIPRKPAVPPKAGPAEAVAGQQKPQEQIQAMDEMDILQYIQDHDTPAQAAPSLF
Put plainly: pull-down; equal concentrations of GST-SH3 (on glutathione beads) and purified MBP-tagged HS1BP3 proteins incubated 2 h at 4 °C, six washes with GST-buffer, anti-MBP immunoblot. To be noted: both partners purified.

B1: GST-SH3 (SH3 domain of cortactin fused to GST) (domain or fragment)
chain: not shown
notes: SH3 domain of cortactin (CTTN); Q14247 amino acids 492-550 are printed only for the SH3 fragment used in the AlphaFold model; Held on glutathione beads as bait; also called GST-SH3 (cortactin); source: SoluBL21 E. coli, purified on Glutathione Sepharose 4B beads
With B1, the binding result is reported as “binds”.
